# Results as given in patent publication US20240159744A1, “COLON CANCER DIAGNOSIS OR DETECTION COMPOSITION FOR PREDICTING RESPONSE TO DRUG, AND COMPOSITION FOR PREVENTING OR TREATING COLON CANCER” (priority 2020, published 2024).
# B1: EGF-Cy5.5 (conjugate, UniProt P01133 23-1207, looked up)
# Pro-epidermal growth factor: PQHWSCPEGTLAGNGNSTCVGPAPFLIFSHGNSIFRIDTEGTNYEQLVVDAGVSVIMDFHYNEKRIYWVDLERQLLQRVFLNGSRQERVCNIEKNVSGMAINWINEEVIWSNQQEGIITVTDMKGNNSHILLSALKYPANVAVDPVERFIFWSSEVAGSLYRADLDGVGVKALLETSEKITAVSLDVLDKRLFWIQYNREGSNSLICSCDYDGGSVHISKHPTQHNLFAMSLFGDRIFYSTWKMKTIWIANKHTGKDMVRINLHSSFVPLGELKVVHPLAQPKAEDDTWEPEQKLCKLRKGNCSSTVCGQDLQSHLCMCAEGYALSRDRKYCEDVNECAFWNHGCTLGCKNTPGSYYCTCPVGFVLLPDGKRCHQLVSCPRNVSECSHDCVLTSEGPLCFCPEGSVLERDGKTCSGCSSPDNGGCSQLCVPLSPVSWECDCFPGYDLQLDEKSCAASGPQPFLLFANSQDIRHMHFDGTDYGTLLSQQMGMVYALDHDPVENKIYFAHTALKWIERANMDGSQRERLIEEGVDVPEGLAVDWIGRRFYWTDRGKSLIGRSDLNGKRSKIITKENISQPRGIAVHPMAKRLFWTDTGINPRIESSSLQGLGRLVIASSDLIWPSGITIDFLTDKLYWCDAKQSVIEMANLDGSKRRRLTQNDVGHPFAVAVFEDYVWFSDWAMPSVMRVNKRTGKDRVRLQGSMLKPSSLVVVHPLAKPGADPCLYQNGGCEHICKKRLGTAWCSCREGFMKASDGKTCLALDGHQLLAGGEVDLKNQVTPLDILSKTRVSEDNITESQHMLVAEIMVSDQDDCAPVGCSMYARCISEGEDATCQCLKGFAGDGKLCSDIDECEMGVPVCPPASSKCINTEGGYVCRCSEGYQGDGIHCLDIDECQLGEHSCGENASCTNTEGGYTCMCAGRLSEPGLICPDSTPPPHLREDDHHYSVRNSDSECPLSHDGYCLHDGVCMYIEALDKYACNCVVGYIGERCQYRDLKWWELRHAGHGQQQKVIVVAVCVVVLVMLLLLSLWGAHYYRTQKLLSKNPKNPYEESSRDVRSRRPADTEDGMSSCPQPWFVVIKEHQDLKNGGQPVAGEDGQAADGSMQPTSWRQEPQLCGMGTEQGCWIPVSSDKGSCPQVMERSFHMPSYGTQTLEGGVEKPHSLLSANPLWQQRALDPPHQMELTQ
# modifications: Pro-epidermal growth factor Cy5.5 dye label
# Tested on: HCT-15 tumor-bearing mice
# Assay: In-vivo and ex-vivo fluorescence imaging of EGF-Cy5.5, C-probe, EGF-probe
# Experimental: The biodistribution of the EGF-probe intravenously administered to mice having HCT-15, HT29, Lovo or HCT-8 tumors was evaluated. First of all, 6-week-old Balb/c-nude mice (Nara-Biotec, Gyeonggi-do, Korea) were prepared and each cell was subcutaneously inoculated into the nude mice at the right flank at a concentration of 2×10^6 cells/mouse to generate tumors. […] At 24 hours after the administration of the EGF-probe, the mouse was imaged using an IVIS fluorescence imaging system. […] IVIS fluorescence imaging was conducted at 24 hours after the administration. Major organs and tumors were obtained and imaged with an IVIS imaging system. The fluorescence intensity of the organs and tumors was analyzed using the Living Image 2.50 software. […] The tumor tissue sections were counter-stained with DAPI and visualized with a confocal microscope.
molecule,measurement,setting,value
B1,in-vivo fluorescence imaging (tumor and background signals),"5 mg/kg intravenous, 24 hours, IVIS",strong fluorescence signal at the tumor site but nonspecific background signals were observed throughout the body
same,fluorescence of tumor tissue sections,"cryosections, confocal",observed clearly
